Source: patent US20150056205A1, “STEROID SPARING AGENTS AND METHODS OF USING SAME” (BIOGEN IDEC MA INC., priority 2004, published 2015)

Columns and labels:
[1] = system: mice, guinea pigs, and monkeys; details: in vivo
Procedure: Single- and multiple-dose toxicity studies have been performed in mice, guinea pigs, and monkeys. All toxicology studies were carried out using natalizumab and included an acute study in guinea pigs, subacute studies in mouse and cynomolgus monkeys, and mutagenicity and tissue cross-reactivity studies.

[2] = system: subjects diagnosed with chronic active Crohn's disease; experiment: placebo-controlled single infusion study in chronic active Crohn's disease; assay type: in vivo
Procedure: Earlier studies in Crohn's disease and ulcerative colitis are summarized below. One study was a randomized, double-blind, placebo-controlled, safety, tolerability, and efficacy study of a single infusion of intravenous 3 mg/kg natalizumab in male and female subjects diagnosed with chronic active Crohn's disease. Thirty subjects were enrolled; 18 were treated with natalizumab (3 mg/kg) and 12 with placebo.

α4 integrin = target: T1, α4 integrin (Homo sapiens, UniProt P13612); experiment: single dose pharmacokinetics and α4 integrin receptor saturation in clinical trials; assay type: in vivo
T1 construct: endogenous in cells; host or cells: circulating leukocytes of healthy volunteers and MS/IBD subjects (in vivo)
Procedure: The initial dose of natalizumab selected for clinical evaluation was based on non-clinical studies in the guinea pig Experimental Allergic Encephalitis (EAE) model. […] A single dose of 3 mg/kg appeared to provide serum concentrations of natalizumab associated with α4 integrin receptor blockade for up to approximately 3 weeks, and 6 mg/kg for about 6 weeks.
Natalizumab has been evaluated in all clinical trials to date by administration of dose adjusted for bodyweight. […] A single infusion of a higher dose of 6 mg/kg natalizumab produced α4 integrin saturation levels which were slightly higher and more prolonged (approximately 6 weeks).

[3] = system: subjects with Crohn's disease; experiment: Phase III maintenance of response and remission study in Crohn's disease (Example 9, second study); assay type: in vivo, human
Procedure: A double-blind, placebo-controlled study of the efficacy, safety, and tolerability of intravenous Tysabri (natalizumab, 300 mg monthly) in maintaining clinical response and remission in patients with Crohn's Disease (CD) was performed. The objectives were to compare the ability of natalizumab versus placebo to maintain a clinical response in subjects with CD, to compare the ability of natalizumab versus placebo to maintain a clinical remission in subjects with CD, to compare the effects of natalizumab versus placebo on quality of life as measured by the Inflammatory Bowel Disease Questionnaire (IBDQ), and to compare the ability of natalizumab versus placebo to allow subjects to achieve withdrawal of oral steroids.
A Phase III, international, multicenter, randomized, double-blind, placebo-controlled, parallel-group study of subjects with previously active Crohn's disease (CD) (defined as moderately to severely active, CDAI≧220, <450) who have responded to treatment at Week 10 and maintained that response out to Week 12 in a first study (defined as a ≧70 point decrease in baseline CDAI) and whose disease is mildly active (defined as a CDAI score of <220) was undertaken.
Within this group there was a sub-population who had achieved remission (defined as a CDAI score of <150) at Week 10 of the first study. […] Subjects receiving concomitant medications for their CD were permitted to enroll providing that doses remained stable throughout their participation in the first study. All concomitant medications for CD remained stable for the duration of the 12-month treatment phase (up to Month 15) with the exception of oral steroids which were reduced according to a fixed algorithm). At the time this application was filed, only 9 months of data was available.
Natalizumab was administered 300 mg monthly for 12 infusions. The placebo was administered monthly for 12 infusions. Subjects were stratified according to their disease status (remission versus no remission, i.e., a CDAI<150 or ≧150), concomitant use of oral steroids and concomitant use of immunosuppressants.
Once randomized, subjects received their first infusion. Thereafter, they returned to the clinic on a monthly basis (where 1 month is defined as a 4-week period) for assessment and infusion. Introduction of any new medication for CD or a dose change to an existing concomitant medication for CD (with the exception of oral steroids withdrawn according to the fixed algorithm) […] unless deemed necessary for purposes of rescue intervention. Once rescued, such a subject was considered a treatment failure.
Eligible subjects at Week 10 in the first study were consented and enrolled into the second study, in order to allow subjects taking concomitant oral steroids to begin a steroid taper. Subjects who continued to meet the eligibility criteria at Week 12/Month 3, i.e., in time for their next, monthly infusion, were re-randomized and entered the treatment phase which will last up to 12 months in duration (i.e., up to Month 15). Subjects were male or female, eighteen years of age or older.
All subjects receiving oral steroids were required to undergo a taper immediately upon entry into the second study using the following algorithm. Subjects on doses equivalent to >10 mg of prednisolone will begin their taper at a rate of 5 mg every 7 days until they reach a dose of 10 mg. Subjects on doses equivalent to 10 mg of prednisolone were tapered at a rate of 2.5 mg every 7 days until they are completely withdrawn. Subjects taking budesonide were tapered at a rate of 3 mg every 3 weeks.
The ability of natalizumab to maintain mildly active disease (defined as a CDAI score of <220 and no use of rescue intervention) and remission (defined as a CDAI score of <150 and no use of rescue intervention) in subjects with CD was assessed. […]

[4] = system: adult subjects with Crohn's disease (CD); experiment: maintenance of clinical response and remission in Crohn's Disease, six month regimen (Example 10); assay type: in vivo, human
Procedure: This experiment was a double-blind, placebo-controlled study of the efficacy, safety, and tolerability of natalizumab in maintaining clinical response and remission in Crohn's Disease.
Natalizumab, a humanized monoclonal IgG4 antibody to α4 integrin, was evaluated in a randomized, controlled study to determine the ability of a six month regimen to maintain clinical response/remission achieved in natalizumab-treated subjects in the […] induction of response/remission study.
Loss of response was defined as a CDAI≧220 and ≧70-point increase from baseline CDAI in the second study or use of rescue intervention. Maintenance of remission was also assessed.

Substance: natalizumab
- clinical or postmortem evidence of toxicity [1]: did not demonstrate clinical or postmortem evidence of significant toxicity
- mean CDAI scores compared to mean baseline ([2]; 2 and 4 weeks post-treatment, single 3 mg/kg): significantly decreased
- subjects requiring rescue therapy ([2]; Week 2 post-treatment, single 3 mg/kg, placebo 33%): 11%
- subjects withdrawn because of an adverse event ([2]; single 3 mg/kg): No subjects
- subjects reporting one serious adverse event ([2]; single 3 mg/kg, 18 treated): Six
- safety and tolerability ([2]; single intravenous dose of 3 mg/kg, subjects with CD): safe and well tolerated
- subjects in clinical remission (CDAI<150) ([2]; two weeks after single 3 mg/kg intravenous infusion, placebo 8%): 39%
- time serum concentrations, receptor saturation and inhibition of cell adhesion are maintained (α4 integrin; 3 mg/kg infusion): 3-4 weeks
- natalizumab serum concentrations maintained (α4 integrin; 3 mg/kg infusion, healthy volunteers, subjects with MS and IBD): 2.5 to 3.0 µg/mL
- clearance, dependence on bodyweight (α4 integrin; human, in vivo): largely independent of bodyweight
- duration of serum concentrations associated with α4 integrin receptor blockade (α4 integrin; single dose of 3 mg/kg): approximately 3 weeks
- duration of serum concentrations associated with α4 integrin receptor blockade (α4 integrin; single dose of 6 mg/kg): about 6 weeks
- duration of α4 integrin saturation (α4 integrin; single infusion of 6 mg/kg): approximately 6 weeks
- patients of the remission population who maintained a response (remission) ([3]; after 9 months, natalizumab remission population at three months, placebo 25.8%): 43.8%
- patients who maintained a response ([3]; after 9 months, natalizumab responder population at three months, placebo 28.8%): 61.3%
- Remission and not taking steroids, number (%) of subjects ([3]; month 9, of those who took steroids at first study baseline, 300 mg monthly, placebo 17 (22%)): 31 (46%)
- Not taking steroids, number (%) of subjects ([3]; month 9, of those who took steroids at first study baseline, 300 mg monthly, placebo 19 (25%)): 37 (55%)
- serious adverse events (SAEs) ([3]; placebo 8%): 7%
- tapering off steroids ([3]; second study): enabled subjects to be successfully tapered off steroids
- subjects taking steroids in the first study who were withdrawn from steroids ([4]; 300 mg monthly, placebo 25%): 55%
- subjects who maintained clinical remission ([4]; at 6 months, 300 mg monthly, placebo 26%): 44%
- subjects continuing to meet the criteria for clinical response ([4]; at 6 months, ITT population, 300 mg monthly, placebo 29%): 61%
- tolerability ([4]; monthly administration for 6 months): well tolerated
- rates of serious and non-serious adverse events between treatment groups ([4]; versus placebo): No notable difference
